For the first assay, the target named is T1, MHCII (I-A^b) of murine bone marrow-derived dendritic cells (Mus musculus, UniProt P14434+P14483).
T1 construct: immunoprecipitation of mature peptide-MHCII complexes with monoclonal Y3P antibody; endogenous in cells; host or cells: primary BMDCs from C57/BL6 (WT) mice, exposed to live L. monocytogenes EGDe
T1 sequence (P14434 24-256): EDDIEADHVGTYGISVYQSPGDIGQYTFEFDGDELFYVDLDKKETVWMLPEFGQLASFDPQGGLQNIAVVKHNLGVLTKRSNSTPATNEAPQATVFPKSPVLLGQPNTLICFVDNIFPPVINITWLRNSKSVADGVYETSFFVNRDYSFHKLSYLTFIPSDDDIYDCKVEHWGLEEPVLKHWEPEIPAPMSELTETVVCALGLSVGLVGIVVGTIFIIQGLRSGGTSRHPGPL
T1 sequence (P14483 28-265): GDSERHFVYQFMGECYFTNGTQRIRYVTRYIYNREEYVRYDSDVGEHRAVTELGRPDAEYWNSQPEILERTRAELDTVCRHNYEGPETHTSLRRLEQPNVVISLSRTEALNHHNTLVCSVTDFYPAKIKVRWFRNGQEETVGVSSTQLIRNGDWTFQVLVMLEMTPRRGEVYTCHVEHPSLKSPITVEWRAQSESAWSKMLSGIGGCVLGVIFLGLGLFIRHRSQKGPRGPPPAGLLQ
As to the kind of experiment: MHCII peptidomics of BMDCs exposed to live Listeria (iTRAQ LC-MS/MS of MHCII-associated peptides). It counts as cell-based. Conditions: Listeria peptide found by MHCII peptidomics that matches the BOTA prediction. The source says:
To validate BOTA, Applicants tested its performance in predicting MHCII-restricted epitopes from Listeria monocytogenes, one of the most common foodborne pathogens associated with a relatively high mortality rate (Scallan et al., 2011). Despite the epidemiological impact of listeriosis, the number of experimentally validated CD4 T cell epitopes encoded within the Listeria genome is limited. Thus, Applicants first sought to identify MHCII-associated peptides in BMDCs exposed to live Listeria by peptidomics. In these experiments, primary BMDCs were exposed to live L. monocytogenes for 10 minutes or 6 hours prior to immunoprecipitation of mature peptide-MHCII complexes with monoclonal Y3P antibody (Janeway et al., 1984). Associated peptides from biological replicates of the 10-minute and 6-hour timepoints were analyzed using mass spectrometry (LC-MS/MS) (FIGS. 9A and B).
Immuno-affinity purification of MHCII complexes. Bone marrow was harvested from C57/BL6 (WT), Atg16l1^f/f×CD11c-Cre (Conway et al., 2013b), and Atg5^f/f×CD11c-Cre (Conway et al., 2013a) mice. BMDCs were differentiated from bone marrow for seven days in antibiotic-free DMEM supplemented with 20% FBS and GM-CSF (2% conditioned TOPO medium). In parallel, L. monocytogenes strain EGDe (ATCC BA-679) was cultured overnight in BHI medium, washed in PBS, and cocultured with BMDCs at an MOI of approximately 100:1 for 30 minutes. Tissue culture dishes containing cocultures were washed in PBS and cultured for an additional 10 minutes or 6 hours in DC media containing gentamicin (30 μg/ml). BMDCs were then harvested by scraping, washed in PBS, and lysed in 1% NP-40, 4 mM MgCl2, 6 μg/ml DNaseI from bovine pancreas (Sigma Aldrich), and PBS pH 7.4 at 250×10^6 cells/4 ml lysis buffer/sample. Clarified lysates were subjected to immunoprecipitation overnight at 4° C. with gentle rotation. Immunoprecipitation was performed with NHS Mag Sepharose (GE Healthcare) covalently coupled to anti-H2-IA (clone Y3P (Janeway et al., 1984)). Each sample contained 130 μl packed beads and approximately 650 μg antibody. Beads were then washed twice in PBS containing 0.1% NP-40 and three times in PBS.
MHC-peptide elution and desalting. Peptides were eluted from MHC complexes and desalted on in-house-built Empore C18 StageTips (3M, 2315) as described previously (Rappsilber et al., 2007). Sample loading, washes, and elution were performed on a tabletop centrifuge at a maximum speed of 2,000-3,500×g. Briefly, StageTips were equilibrated with 2×100 μL washes of methanol, 2×50 μL washes of 50% acetonitrile/0.1% formic acid (FA), and 2×100 μL washes of 1% FA. In a tube, the dried beads from MHC-associated peptide IPs were thawed at 4° C., reconstituted in 50 μL 3% ACN/5% FA, and loaded onto StageTips. The beads were washed with 50 μL 1% FA, and peptides were further eluted using two rounds of 5-minute incubations in 10% acetic acid. The combined wash and elution volumes were combined and loaded onto StageTips. The tubes containing the IP beads were washed again with 50 μL 1% FA, and this volume was also loaded onto StageTips. Peptides were washed twice on the StageTip with 100 μL 1% FA. Peptides were eluted using a step gradient of 20 μL 20% ACN/0.1% FA, 20 μL 40% ACN/0.1% FA, and 20 μL 60% ACN/0.1% FA. Step elutions were combined and dried to completion.
iTRAQ 4-plex labeling for quantitative proteomics.
As to “15033 (INQAYTGSTALSDGLNKM; Listeria sp) [compound 15033]”, the “Peptidomics Hit” value is given as “GGINQAYTGSTALSDGLN”. Regarding “15029 (ETQHYYGLPVADSAIDRGPL; Listeria sp) [compound 15029]”, the “Peptidomics Hit” value is “...APGQETQHYYGLPVADSAIDR”.

In the case of “15036 (TVRAKSKTYPVYINEFALED; Listeria sp) [compound 15036]”, the “Peptidomics Hit” value is listed as “TVRAKSKTYPVYInEFALE”. For “15034 (GIAVTAFAAPTIASASTVVV; Listeria sp) [compound 15034]”, the “Peptidomics Hit” value is listed as “IAVTAFAAPTIASA”. On to “15028 (ERWNEKYAQAYPNVSAKID; Listeria sp) [compound 15028]”, for which the “Peptidomics Hit” value is “..........[…]”. In the case of “15031 (DTTVKFTLPTVAPAFENTIKT; Listeria sp) [compound 15031]”, the “Peptidomics Hit” value was “AVDDTTVKFTLPTVAPAFENT”. For the substance “15032 (EKVVATPVSNVSTSSATSS; Listeria sp) [compound 15032]”, the “Peptidomics Hit” value was “GTKEKVVATPVSNVSTSSA”. Still for that read-out and setting: as for “15030 (FRYVFDTAKATAASSYPGS; Listeria sp) [compound 15030]”, the entry is “......ADFRYVFDTAKATAASSYPG”.

Staying with this assay, now noted: MHCII-bound peptide abundance, BMDCs, 6 hr versus 10 min after Listeria exposure.
With “14980 (WNEKYAQAYPNVS; Listeria sp) [compound 14980]”, the “logFC (Log2 Fold Change Listeria 6 hr versus 10 min)” value stood at 1.377. Take “15023 (VMASDYTRGLSIRAIELVFENL; Listeria sp) [compound 15023]”: the “logFC (Log2 Fold Change Listeria 6 hr versus 10 min)” value came to 0.2507. Same read-out and setting: next, “15024 (YMEKHSVSRLVGAPP; Listeria sp) [compound 15024]”: -0.4422; “15019 (EILLQKPNGERLTSFITL; Listeria sp) [compound 15019]”: -0.04842. Take “14985 (VWTKPNKIEGAQKISALSTY; Listeria sp) [compound 14985]”: the “logFC (Log2 Fold Change Listeria 6 hr versus 10 min)” value is recorded as -0.2625. Same read-out and setting: next, “15018 (DGLKAGEHFFAAGKDWPDAIYANGDEVAAGVMYH; Listeria sp) [compound 15018]”: -0.4271; “14981 (WNEKYAQAYPNVSAKI; Listeria sp) [compound 14981]”: 1.202; “15017 (EVVYHNMKQDLE; Listeria sp) [compound 15017]”: -0.1708. With “15022 (MNRVMLPLQQMGAKMHGK; Listeria sp) [compound 15022]”, the “logFC (Log2 Fold Change Listeria 6 hr versus 10 min)” value is 0.1447. In the case of “15026 (ESVYLSAQKENPRLFAKIETF; Listeria sp) [compound 15026]”, the “logFC (Log2 Fold Change Listeria 6 hr versus 10 min)” value was found to be 0.5951.

With “15020 (GLLMAKKYKMNLTIVIVN; Listeria sp) [compound 15020]”, the “logFC (Log2 Fold Change Listeria 6 hr versus 10 min)” value is given as -0.6291. On the same count and under the same terms, as for “15025 (KTASGIVLPDSAKEKPQSGKIVAVGSGRVLD; Listeria sp) [compound 15025]”, the figure is -0.4963. Turning to “15016 (SNVNHVLDIGYGGGSNVKN; Listeria sp) [compound 15016]”, the “logFC (Log2 Fold Change Listeria 6 hr versus 10 min)” value is reported as 0.227. Still for that read-out and setting: next, “14983 (ERWNEKYAQAYPNVS; Listeria sp) [compound 14983]”: 0.2069.

On to “14982 (VERWNEKYAQAYPNVS; Listeria sp) [compound 14982]”, for which the “logFC (Log2 Fold Change Listeria 6 hr versus 10 min)” value is on record as 0.2849. Same read-out and setting: next, “15027 (RDNYLFQLYEATGTPIHPMSPF; Listeria sp) [compound 15027]”: -0.05049. Same read-out and setting: next, “14995 (EVEDLNQPLAAHVNYE; Listeria sp) [compound 14995]”: 0.1526.

The next assay relates to CD4 T cells. Kind of assay: IFNγ ELISPOT of splenocytes from Listeria-infected mice restimulated with synthetic peptides. It counts as in vivo, mouse. Conditions: seven days after i.p. Listeria infection; splenocytes restimulated with 100 nM peptide. An excerpt: FIG. 10—BOTA and MHCII peptidomics accurately predict immunodominance in vivo. […] At day 7, splenocytes were harvested and restimulated with the indicated peptides for quantification of the T cell response by IFNγ ELISPOT. Data represent the mean number of spots per 1×10^5 CD4 T cells±sd for n=6 mice.
Given that MHCII peptidomics and BOTA successfully identified Listeria peptides and features associated with efficient antigen presentation, Applicants sought to measure T cell responses to these epitopes in vivo. To quantify the CD4 T cell response directed to the top eight candidate Listeria epitopes, mice were sacrificed seven days after intraperitoneal (i.p.) infection with Listeria. T cells were restimulated in vitro with synthetic peptides, and IFN-γ responses were enumerated by ELISPOT. […] The remaining four epitopes elicited weaker responses near the limit of detection for ELISPOT (FIG. 10B).
Listeria infection and ELISPOT. L. monocytogenes strain EGDe (ATCC BA-679) was grown to log phase in BHI, washed in PBS, and used to inoculate mice by i.p. injection with a dose of 1×10^4 CFU/200 μl/mouse. Seven days after infection, spleens were harvested, red blood cells were lysed, and single cell suspensions were replated at 2.5×10^5/200 μl/well on 96-well ELISPOT plates (Millipore MAIPS4510) precoated with anti-IFNγ (BD Pharmingen 551881) at a concentration of 5 μg/ml in PBS. Peptides were added at a concentration of 100 nM to restimulate splenocytes overnight. After stimulation, plates were washed, blocked, and incubated with biotinylated anti-IFNγ (BD Pharmingen 551881) at a concentration of 2 μg/ml and streptavidin-AKP (BD Pharmingen 554065) at a dilution of 1:1000. After 60 minutes, plates were washed and developed with 3-amino-9-ethylcarbazole (AEC, Sigma-Aldrich, A6926). IFNγ-secreting cells were scanned and enumerated using an Immunospot Analyzer ELISpot reader (CTL). All samples were run in triplicate. The following peptides were synthesized by New England Peptide: lmo2185_293-312 […] (SEQ ID NO: 14986), lmo0202_189-204 […] (SEQ ID NO: 14981), lmo0135_150-169 […] (SEQ ID NO: 14997), lmo2558_533-553 […] (SEQ ID NO: 14984), lmo2360_289-306 […] (SEQ ID NO: 15009), lmo0186_285-303 […] (SEQ ID NO: 15005), lmo0582a_26-46 […] (SEQ ID NO: 15012), lmo0582b_12-25 […] (SEQ ID NO: 15013). To calculate the frequency of CD4^+ cells in each splenocyte sample from infected mice, an aliquot of cells from each mouse was stained for flow cytometric analysis. 1×10^6 cells were incubated with 2.4G2 Mouse Fc block in PBS/FBS (BD Pharmingen, 553142) for 20 min at 4° C. […] Fluorescently labeled cells were acquired on the FACSVerse flow cytometer (BD Biosciences) and analyzed using FlowJo Analysis Software (Tree Star).
“APGQETQHYYGLPVADSAIDR (Listeria sp) [SEQ ID NO: 14984, Listeria peptide from lmo2558 (ami)]”: the “T cell response (IFN-γ ELISPOT)” value is “Robust responses”.

Consider “VDDTTVKFTLPTVAPAFENT (Listeria sp) [SEQ ID NO: 14997, Listeria peptide from lmo0135]”, for which the “T cell response (IFN-γ ELISPOT)” value is recorded as “Robust responses”. Still for that read-out and setting: as for “ADFRYVFDTAKATAASSYPG (Listeria sp) [SEQ ID NO: 14986, Listeria peptide from lmo2185]”, the entry is “Robust responses”.

For the substance “WNEKYAQAYPNVSAKI (Listeria sp) [SEQ ID NO: 14981, Listeria peptide from lmo0202 (hly) (LLO)]”, the “T cell response (IFN-γ ELISPOT)” value was “Robust responses”.

(Values after patent US12374423B2, “Systems and methods for MHC class II epitope prediction” (priority 2017, dated 2025).)
